Our source for the binding values is publication PMC12054373.

The target in data set [1] is T1, bS21 (Halalkalibacterium halodurans C-125?) (UniProt Q9KD65).
T1 sequence: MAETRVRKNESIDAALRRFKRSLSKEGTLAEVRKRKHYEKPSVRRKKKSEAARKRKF
Nature of the data set: filter binding. The conditions noted are these: Filter binding: 20 mM Tris-HCl pH 7.5, 150 mM NaCl, 10 mM MgCl2, 1 mM TCEP, 5% glycerol, 0.001% SDS, ~2.5 nM RNA, 20°C, 15 min; in-line probing buffer not in ….

The target in data set [2] is T1, bS21 (Halalkalibacterium halodurans C-125?). The data set is described as follows: footprinting (in-line probing). As to conditions: Filter binding: 20 mM Tris-HCl pH 7.5, 150 mM NaCl, 10 mM MgCl2, 1 mM TCEP, 5% glycerol, 0.001% SDS, ~2.5 nM RNA, 20°C, 15 min; in-line probing buffer not in ….

Take “GGAUCGAUGAAGCUCCUUGUGAUGGCUUGAGGCGCCCAGCCUUGGGUCAUUGCUGGGAGAAAAGGUAGUAGGGCGAUCCACAAAGGCAUGUGGGCGAUGACCCUCCUACUG [OLE83-191 WT]”: the binding entry in data set [1] and in data set [2] was “binds” throughout.

As to “GGCAUUUAAAGAGGAUUACAGUGUGGACUAAGUGGUAAUCCAGUCUGGCGUUUGGUGACAGCGCCAAGUUCAACAUAAAGGGAAACCGCCAGCGCGGCGACGCACUGGUGUUGAAUUGGGAAAUCCUACUGGACCUAAGCCACAGAGUUUACUCUUUAAAUG [OLE449-608]”, the binding result in data set [1] is on record as “binds more weakly”.

Consider “GGGGCACAUCGAUGAAGCUCCUUGUGAUGGCUUGAGGCGCCCAGCCUUGGGUCAUUGCUGGGAGAAAAGGUAGUAGGGCGAUCCACAAAGGCAUGUGGGCGAUGACCCUCCUACUGUGGAGGCCUUUUUCUCUGCUGCUUAUGUAUGGACAUAGGGCAAGAGCAAAGGGUAUGAACCUGCGAAGGCAAGCUAGGGAGCUUGUCAGCAGCGUAGCC [OLE78-290]”, for which the binding entry in data set [1] and in data set [2] was “binds” throughout.
